This note sets out measurements from paper PMC4254552 (Developmental cell, 2014).

Experiment [1] has as its target T1, HIM-3 part of the chimeric protein HIM-3:HTP-3 motif #4 (C. elegans, UniProt G5EBG0 1-276).
T1 sequence (looked up): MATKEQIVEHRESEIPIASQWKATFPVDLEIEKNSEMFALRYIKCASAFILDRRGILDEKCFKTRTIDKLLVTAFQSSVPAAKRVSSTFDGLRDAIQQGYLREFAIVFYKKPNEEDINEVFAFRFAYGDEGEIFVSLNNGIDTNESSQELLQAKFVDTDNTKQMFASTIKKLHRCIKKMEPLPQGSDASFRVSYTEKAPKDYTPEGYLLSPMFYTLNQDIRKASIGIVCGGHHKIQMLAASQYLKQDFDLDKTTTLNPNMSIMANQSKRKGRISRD
Kind of experiment: crystal structure.

Experiment [2] addresses T2, HIM-3-6His (C. elegans, UniProt G5EBG0 1-291).
T2 sequence (looked up): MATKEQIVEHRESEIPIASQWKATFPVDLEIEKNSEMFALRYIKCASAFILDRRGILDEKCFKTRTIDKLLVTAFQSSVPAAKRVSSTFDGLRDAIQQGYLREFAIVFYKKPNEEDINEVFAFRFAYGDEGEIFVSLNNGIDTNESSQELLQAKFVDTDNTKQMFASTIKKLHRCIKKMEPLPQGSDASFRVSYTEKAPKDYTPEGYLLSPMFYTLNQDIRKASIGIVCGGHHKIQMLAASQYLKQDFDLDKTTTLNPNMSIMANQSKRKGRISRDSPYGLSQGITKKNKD

Turning to RHYGRVSSILDVAGS (peptide, UniProt O01820 649-663, looked up) [HTP-3 motif #4 (residues 649-663) as placed in the HIM-3 chimera], the binding result in experiment [1] was “binds”.

B1: HTP-1 (untagged, co-expressed) (natural protein, C. elegans, UniProt Q20305 1-352, looked up)
chain: MAPLETIYDESLNKSADSIDDKKWSKLFPRIVSDPDRSSNFMTRAIYVAFSAVLRNRNILGQEYFTKNYITEKLKCMTLCFRNPRSNQIAQLLRNAGDATKDGFLKEVSLVITNNEGDLEAIEVFSMKFIYFENGGVVARLSTDKNGQEDPHFAKLAQLVYEGGDSVRDQMVTIVRSVQFLCTKVLEPLPEEFTANFRLEYTNDAPSNFRIDGFEDSSTFYTLPDDIQSATIGHLRPGCHAANMECWSMLMSDSYEAELTLKRHLDKVSDRHGFNPVNVLYKSFNSEDSDTSLSQATTESVNDQGGNETSPVDDITESLEKAQMSPIQTRPTTRRGADGSKTRSSPYSRSCK
On to B1, for which the “stoichiometry N” value in experiment [2] was 1 HTP-1 per HIM-3.

B2: HTP-2 (co-expressed; tag not told) (natural protein, C. elegans, UniProt Q95XC8 1-352, looked up)
chain: MAPLENNYNESLNKSKDAIDDKTWSKLFPSIVSDPDRSSNFMIRAIYVVFSAVLRQRNILEKEYFSKNYITENLSCMTLSFKNLRAHQIAQLLRAAGDATKDGFLKEISLVVTEHDGDVEAIEVFSMKFIYFENGGVVARLSTDNNDQEDPHFAELAQLRYEGAESVRDQMVTIVRSVQFLCTKVLEPLPAEFTANFRLKYTNDAPSNFRIDGFDDSSTFYTLPDGIQSVTIGHLRPGHHAAHMQCWSKSMSDSYAAELTLKGHLDKVSDMYAFNPVNVLYKSFNSEDTDPGLSQDTTESANDQGGNVTSPVDNITDSLEKTQMSPIKMRPTTRRGADDSKTRSSPYSRSRK
In the case of B2, the “stoichiometry N” value in experiment [2] was 1 HTP-2 per HIM-3.
